# Assay results published in publication PMC12151148 (2024).
# No end group written: not given here.
# T1: Gαi3⋅GDP (human, UniProt P08754 1-354)
# T1 chain: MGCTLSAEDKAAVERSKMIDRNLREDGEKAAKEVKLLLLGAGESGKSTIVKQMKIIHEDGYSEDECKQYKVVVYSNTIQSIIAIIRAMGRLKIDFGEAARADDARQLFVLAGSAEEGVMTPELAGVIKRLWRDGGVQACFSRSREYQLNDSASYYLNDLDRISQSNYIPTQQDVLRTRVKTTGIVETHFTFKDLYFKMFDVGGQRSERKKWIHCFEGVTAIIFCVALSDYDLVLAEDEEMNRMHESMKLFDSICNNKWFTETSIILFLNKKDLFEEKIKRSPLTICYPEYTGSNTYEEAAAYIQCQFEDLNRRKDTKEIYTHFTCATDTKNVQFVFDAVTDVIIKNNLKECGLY
# T2: FL-LGN-4E (mouse, UniProt Q8VDU0)
# T2 sequence (Q8VDU0 whole entry, looked up): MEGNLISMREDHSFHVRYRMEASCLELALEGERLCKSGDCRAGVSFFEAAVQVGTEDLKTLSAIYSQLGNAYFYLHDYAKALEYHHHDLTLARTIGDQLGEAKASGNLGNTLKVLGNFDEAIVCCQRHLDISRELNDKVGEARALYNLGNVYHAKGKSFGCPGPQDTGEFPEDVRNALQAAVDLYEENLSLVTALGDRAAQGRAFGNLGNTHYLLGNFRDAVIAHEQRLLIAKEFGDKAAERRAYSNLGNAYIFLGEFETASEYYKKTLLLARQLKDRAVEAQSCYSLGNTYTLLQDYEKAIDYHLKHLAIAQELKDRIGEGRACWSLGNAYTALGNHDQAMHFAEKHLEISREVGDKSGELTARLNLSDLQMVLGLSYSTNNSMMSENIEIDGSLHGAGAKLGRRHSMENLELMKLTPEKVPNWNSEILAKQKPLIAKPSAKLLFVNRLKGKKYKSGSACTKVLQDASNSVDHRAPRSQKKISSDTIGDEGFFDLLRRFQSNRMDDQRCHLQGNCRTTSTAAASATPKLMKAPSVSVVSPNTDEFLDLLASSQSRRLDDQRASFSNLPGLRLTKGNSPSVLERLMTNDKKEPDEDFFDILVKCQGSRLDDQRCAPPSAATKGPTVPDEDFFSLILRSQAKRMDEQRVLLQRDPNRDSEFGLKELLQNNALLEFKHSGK
# T3: AGS3-L (−23–405) (mouse)
# T3 chain: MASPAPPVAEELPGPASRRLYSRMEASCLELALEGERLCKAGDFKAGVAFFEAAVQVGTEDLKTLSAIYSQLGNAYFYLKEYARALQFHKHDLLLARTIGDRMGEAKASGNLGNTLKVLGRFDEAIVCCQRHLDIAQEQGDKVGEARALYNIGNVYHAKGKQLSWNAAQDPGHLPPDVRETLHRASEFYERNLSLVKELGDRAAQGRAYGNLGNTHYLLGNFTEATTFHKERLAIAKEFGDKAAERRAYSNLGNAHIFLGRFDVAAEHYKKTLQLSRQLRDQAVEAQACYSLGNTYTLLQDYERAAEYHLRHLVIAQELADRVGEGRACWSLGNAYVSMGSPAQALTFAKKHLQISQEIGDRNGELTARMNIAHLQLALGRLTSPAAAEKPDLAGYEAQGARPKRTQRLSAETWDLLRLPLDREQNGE
# T4: LGN (Homo sapiens, UniProt P81274)
# T4 chain: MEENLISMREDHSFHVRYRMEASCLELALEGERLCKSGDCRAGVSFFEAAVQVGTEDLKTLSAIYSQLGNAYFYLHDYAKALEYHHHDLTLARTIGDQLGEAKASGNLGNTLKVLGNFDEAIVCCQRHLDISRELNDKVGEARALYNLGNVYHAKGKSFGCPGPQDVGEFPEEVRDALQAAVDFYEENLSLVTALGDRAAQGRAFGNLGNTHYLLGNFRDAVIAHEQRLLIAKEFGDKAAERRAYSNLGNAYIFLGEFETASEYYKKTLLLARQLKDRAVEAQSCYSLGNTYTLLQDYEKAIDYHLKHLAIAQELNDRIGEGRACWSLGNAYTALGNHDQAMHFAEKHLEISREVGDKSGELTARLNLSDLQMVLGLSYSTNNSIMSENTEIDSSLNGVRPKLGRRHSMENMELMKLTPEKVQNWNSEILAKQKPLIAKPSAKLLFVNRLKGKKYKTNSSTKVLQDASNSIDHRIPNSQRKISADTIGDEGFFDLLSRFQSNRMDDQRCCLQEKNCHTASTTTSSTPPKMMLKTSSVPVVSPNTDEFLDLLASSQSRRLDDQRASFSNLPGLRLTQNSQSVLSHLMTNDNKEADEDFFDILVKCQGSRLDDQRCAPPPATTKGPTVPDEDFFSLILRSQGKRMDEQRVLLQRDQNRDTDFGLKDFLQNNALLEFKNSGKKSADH
# T5: AGS3 (Homo sapiens, UniProt Q86YR5)
# T5 chain: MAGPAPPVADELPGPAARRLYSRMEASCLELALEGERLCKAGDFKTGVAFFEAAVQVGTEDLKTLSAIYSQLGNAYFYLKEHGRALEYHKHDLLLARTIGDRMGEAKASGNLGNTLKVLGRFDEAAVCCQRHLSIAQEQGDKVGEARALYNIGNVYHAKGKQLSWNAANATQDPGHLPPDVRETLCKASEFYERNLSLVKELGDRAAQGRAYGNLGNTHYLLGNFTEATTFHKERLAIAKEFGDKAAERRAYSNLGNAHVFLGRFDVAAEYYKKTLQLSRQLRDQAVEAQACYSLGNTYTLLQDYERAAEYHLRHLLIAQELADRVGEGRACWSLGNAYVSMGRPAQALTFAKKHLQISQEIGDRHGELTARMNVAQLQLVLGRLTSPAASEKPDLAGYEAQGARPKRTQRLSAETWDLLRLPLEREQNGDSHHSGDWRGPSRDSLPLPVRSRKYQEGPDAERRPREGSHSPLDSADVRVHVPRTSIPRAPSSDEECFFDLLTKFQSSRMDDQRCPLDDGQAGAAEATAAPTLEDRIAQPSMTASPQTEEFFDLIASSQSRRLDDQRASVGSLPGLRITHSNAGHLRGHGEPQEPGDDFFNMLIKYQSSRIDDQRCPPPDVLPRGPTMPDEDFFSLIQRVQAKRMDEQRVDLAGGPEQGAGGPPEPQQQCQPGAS
# T6: LGN-TPR (1–409) (mouse)
# T6 chain: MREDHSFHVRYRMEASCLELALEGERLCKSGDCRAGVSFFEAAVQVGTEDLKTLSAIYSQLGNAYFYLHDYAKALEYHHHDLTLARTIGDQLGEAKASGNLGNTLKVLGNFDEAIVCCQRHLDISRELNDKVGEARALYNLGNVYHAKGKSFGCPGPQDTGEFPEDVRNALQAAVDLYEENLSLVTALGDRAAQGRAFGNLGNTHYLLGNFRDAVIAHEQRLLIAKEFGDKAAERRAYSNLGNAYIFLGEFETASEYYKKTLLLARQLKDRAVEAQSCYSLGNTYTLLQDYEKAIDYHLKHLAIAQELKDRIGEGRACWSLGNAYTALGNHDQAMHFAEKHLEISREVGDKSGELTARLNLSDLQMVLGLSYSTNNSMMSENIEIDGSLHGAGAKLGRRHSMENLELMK
# T7: FL-AGS3-4E (mouse, UniProt Q6IR34)
# T7 sequence (Q6IR34 whole entry, looked up): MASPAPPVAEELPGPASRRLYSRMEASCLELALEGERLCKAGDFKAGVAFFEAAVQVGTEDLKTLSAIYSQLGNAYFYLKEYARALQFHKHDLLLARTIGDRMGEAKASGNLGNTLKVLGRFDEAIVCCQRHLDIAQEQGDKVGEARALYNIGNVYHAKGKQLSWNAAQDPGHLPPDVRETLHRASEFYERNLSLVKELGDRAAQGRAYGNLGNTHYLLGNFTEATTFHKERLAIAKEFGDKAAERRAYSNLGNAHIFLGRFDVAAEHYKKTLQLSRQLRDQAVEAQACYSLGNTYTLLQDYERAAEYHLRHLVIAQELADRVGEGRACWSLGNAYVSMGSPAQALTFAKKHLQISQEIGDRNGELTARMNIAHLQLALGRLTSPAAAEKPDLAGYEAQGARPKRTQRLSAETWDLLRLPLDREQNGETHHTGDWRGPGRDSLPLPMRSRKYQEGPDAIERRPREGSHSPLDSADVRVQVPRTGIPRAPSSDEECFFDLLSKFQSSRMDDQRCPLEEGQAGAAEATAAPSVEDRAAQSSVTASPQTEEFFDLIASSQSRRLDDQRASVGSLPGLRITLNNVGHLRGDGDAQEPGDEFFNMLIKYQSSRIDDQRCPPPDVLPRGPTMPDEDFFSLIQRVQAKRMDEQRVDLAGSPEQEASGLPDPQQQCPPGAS
# B1: AGS3 GL2 motif (domain or fragment)
# chain: TEEFFDLIASSQSRRLDDQRASV
# B2: LGN GL2 motif (domain or fragment)
# chain: TDEFLDLLASSQSRRLDDQRASF
# B3: AGS3 GL4 motif (domain or fragment)
# chain: DEDFFSLIQRVQAKRMDEQRVDL
# B4: AGS3 GL1 motif (domain or fragment)
# chain: EECFFDLLSKFQSSRMDDQRCPL
# B5: LGN GL4 motif (domain or fragment)
# chain: DEDFFSLILRSQAKRMDEQRVLL
# B6: LGN GL3 motif (domain or fragment)
# chain: DEDFFDILVKCQGSRLDDQRCAP
# B7: LGN GL1 motif (domain or fragment)
# chain: DEGFFDLLRRFQSNRMDDQRCHL
# B8: AGS3-GL1234 (470–631) (domain or fragment)
# chain: EECFFDLLSKFQSSRMDDQRCPLEEGQAGAAEATAAPSVEDRAAQSSVTASPQTEEFFDLIASSQSRRLDDQRASVGSLPGLRITLNNVGHLRGDGDAQEPGDEFFNMLIKYQSSRIDDQRCPPPDVLPRGPTMPDEDFFSLIQRVQAKRMDEQRVDLAGSP
# B9: LGN-GL1234 (483–650) (domain or fragment)
# chain: DEGFFDLLRRFQSNRMDDQRCHLQGNCRTTSTAAASATPKLMKAPSVSVVSPNTDEFLDLLASSQSRRLDDQRASFSNLPGLRLTKGNSPSVLERLMTNDKKEPDEDFFDILVKCQGSRLDDQRCAPPSAATKGPTVPDEDFFSLILRSQAKRMDEQRVLLQRDPNRD
# B10: AGS3 GL3 motif (domain or fragment)
# chain: GDEFFNMLIKYQSSRIDDQRCPP
# B11: NuMA (1886–1912) (domain or fragment)
# chain: NSFYMGTCQDEPEQLDDWNRIAELQQR
# B12: Insc 18-66 (peptide)
# chain: WGLWGVQESRRLCCAGHDRCKQALLQIGINMMALPGGRHLDSVTLPGQR
# B13: Insc 18-66 (peptide)
# chain: B12 chain
# modifications: not fully specified; cysteine pairing not given here
# Target: T1, Gαi3⋅GDP
# Assay: ITC; GDP
row,Kd [µM],Binder
1,0.04,B1
2,0.04,B2
3,0.33,B3
4,0.3,B4
5,0.2,B5
6,0.04,B6
7,0.33,B7
8,0.28,B8
9,0.26,B9
10,0.26,B10

# Target: T2, FL-LGN-4E
# Assay: ITC
row,Kd [µM],Binder
1,0.2,B11

# Target: T3, AGS3-L (−23–405)
# Assay: ITC
row,Kd [µM],Binder
1,0.24,B11

# Target: T1, Gαi3⋅GDP
# Assay: ITC
row,Kd [µM],Binder
1,0.0365,B1
2,0.0415,B2
3,0.32,B3
4,0.3,B4
5,0.33,B7
6,0.26,B10

# Target: T4, LGN
# Assay: not given
row,Kd [µM],Binder
1,3.92,B12
2,2.62,B13

# Target: T5, AGS3
# Assay: not given
row,Kd [µM],Binder
1,2.27,B12
2,2.29,B13

# Target: T6, LGN-TPR (1–409)
# Assay: ITC
row,Kd [µM],Binder
1,0.63,B11

# Target: T7, FL-AGS3-4E
# Assay: ITC
row,Kd [µM],Binder
1,0.28,B11
